# B1: Myozenin-2 (Homo sapiens), Q9NPC6 (parent)
# chain: MLSHNTMMKQRKQQATAIMKEVHGNDVDGMDLGKKVSIPRDIMLEELSHLSNRGARLFKMRQRRSDKYTFENFQYQSRAQINHSIAMQNGKVDGSNLEGGSQQAPLTPPNTPDPRSPPNPDNIAPGYSGPLKEIPPEKFNTTAVPKYYQSPWEQAISNDPELLEALYPKLFKPEGKAELPDYRSFNRVATPFGGFEKASRMVKFKVPDFELLLLTDPRFMSFVNPLSGRRSFNRTPKGWISENIPIVITTEPTDDTTVPESEDL
# B2: ATP synthase mitochondrial F1 complex assembly factor 2 (Homo sapiens), Q8N5M1 (parent)
# chain: MWRSCLRLRDGGRRLLNRPAGGPSASMSPGPTIPSPARAYAPPTERKRFYQNVSITQGEGGFEINLDHRKLKTPQAKLFTVPSEALAIAVATEWDSQQDTIKYYTMHLTTLCNTSLDNPTQRNKDQLIRAAVKFLDTDTICYRVEEPETLVELQRNEWDPIIEWAEKRYGVEISSSTSIMGPSIPAKTREVLVSHLASYNTWALQGIEFVAAQLKSMVLTLGLIDLRLTVEQAVLLSRLEEEYQIQKWGNIEWAHDYELQELRARTAAGTLFIHLCSESTTVKHKLLKE
# partner: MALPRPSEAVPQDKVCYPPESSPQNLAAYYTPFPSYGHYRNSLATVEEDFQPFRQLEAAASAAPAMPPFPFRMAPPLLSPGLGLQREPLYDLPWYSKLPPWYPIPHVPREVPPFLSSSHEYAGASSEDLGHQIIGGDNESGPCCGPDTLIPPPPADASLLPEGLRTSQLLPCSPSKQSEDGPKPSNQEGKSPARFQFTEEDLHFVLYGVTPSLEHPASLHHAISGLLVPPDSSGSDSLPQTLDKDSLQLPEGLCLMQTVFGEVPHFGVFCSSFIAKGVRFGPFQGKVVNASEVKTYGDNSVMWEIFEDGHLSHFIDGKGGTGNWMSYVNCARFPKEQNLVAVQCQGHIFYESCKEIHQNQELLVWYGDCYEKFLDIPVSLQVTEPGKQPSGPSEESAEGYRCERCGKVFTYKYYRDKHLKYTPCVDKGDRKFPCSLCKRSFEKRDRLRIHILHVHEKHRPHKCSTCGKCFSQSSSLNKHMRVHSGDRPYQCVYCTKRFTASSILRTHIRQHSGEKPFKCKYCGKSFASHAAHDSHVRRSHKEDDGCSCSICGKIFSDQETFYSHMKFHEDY
# B3: U4/U6 small nuclear ribonucleoprotein Prp31 (Homo sapiens), Q8WWY3 (parent)
# chain: MSLADELLADLEEAAEEEEGGSYGEEEEEPAIEDVQEETQLDLSGDSVKTIAKLWDSKMFAEIMMKIEEYISKQAKASEVMGPVEAAPEYRVIVDANNLTVEIENELNIIHKFIRDKYSKRFPELESLVPNALDYIRTVKELGNSLDKCKNNENLQQILTNATIMVVSVTASTTQGQQLSEEELERLEEACDMALELNASKHRIYEYVESRMSFIAPNLSIIIGASTAAKIMGVAGGLTNLSKMPACNIMLLGAQRKTLSGFSSTSVLPHTGYIYHSDIVQSLPPDLRRKAARLVAAKCTLAARVDSFHESTEGKVGYELKDEIERKFDKWQEPPPVKQVKPLPAPLDGQRKKRGGRRYRKMKERLGLTEIRKQANRMSFGEIEEDAYQEDLGFSLGHLGKSGSGRVRQTQVNEATKARISKTLQRTLQKQSVVYGGKSTIRDRSSGTASSVAFTPLQGLEIVNPQAAEKKVAEANQKYFSSMAEFLKVKGEKSGLMST
# partner: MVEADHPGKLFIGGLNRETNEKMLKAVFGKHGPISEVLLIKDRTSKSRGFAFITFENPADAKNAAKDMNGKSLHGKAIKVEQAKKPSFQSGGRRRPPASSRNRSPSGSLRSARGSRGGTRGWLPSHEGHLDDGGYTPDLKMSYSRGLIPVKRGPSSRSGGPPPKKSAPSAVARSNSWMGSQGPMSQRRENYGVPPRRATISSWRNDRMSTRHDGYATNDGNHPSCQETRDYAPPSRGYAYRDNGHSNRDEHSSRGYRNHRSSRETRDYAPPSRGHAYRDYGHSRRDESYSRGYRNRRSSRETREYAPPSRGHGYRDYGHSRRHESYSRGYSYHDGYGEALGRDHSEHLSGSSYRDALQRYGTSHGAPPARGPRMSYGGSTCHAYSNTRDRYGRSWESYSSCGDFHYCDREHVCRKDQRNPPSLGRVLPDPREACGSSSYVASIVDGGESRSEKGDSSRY
# B4: U4/U6 small nuclear ribonucleoprotein Prp31 (Homo sapiens), Q8WWY3 (parent)
# chain: B3 chain
# partner: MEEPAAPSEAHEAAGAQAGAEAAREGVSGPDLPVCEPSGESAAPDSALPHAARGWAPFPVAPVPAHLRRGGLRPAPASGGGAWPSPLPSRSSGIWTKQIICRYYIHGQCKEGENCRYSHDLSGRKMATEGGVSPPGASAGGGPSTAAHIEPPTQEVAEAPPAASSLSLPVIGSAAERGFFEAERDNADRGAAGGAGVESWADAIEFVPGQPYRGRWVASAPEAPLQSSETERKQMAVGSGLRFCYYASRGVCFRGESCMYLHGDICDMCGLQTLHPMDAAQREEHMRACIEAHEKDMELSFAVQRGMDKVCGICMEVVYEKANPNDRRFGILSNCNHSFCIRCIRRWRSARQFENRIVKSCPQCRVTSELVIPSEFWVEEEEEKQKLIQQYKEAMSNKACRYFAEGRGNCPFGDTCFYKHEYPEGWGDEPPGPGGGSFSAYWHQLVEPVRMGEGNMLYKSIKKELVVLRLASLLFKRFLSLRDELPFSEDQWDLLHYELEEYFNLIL
# B5: Alpha-crystallin B chain (Homo sapiens), P02511 (parent)
# chain: MDIAIHHPWIRRPFFPFHSPSRLFDQFFGEHLLESDLFPTSTSLSPFYLRPPSFLRAPSWFDTGLSEMRLEKDRFSVNLDVKHFSPEELKVKVLGDVIEVHGKHEERQDEHGFISREFHRKYRIPADVDPLTITSSLSSDGVLTVNGPRKQVSGPERTIPITREEKPAVTAAPKK
# partner: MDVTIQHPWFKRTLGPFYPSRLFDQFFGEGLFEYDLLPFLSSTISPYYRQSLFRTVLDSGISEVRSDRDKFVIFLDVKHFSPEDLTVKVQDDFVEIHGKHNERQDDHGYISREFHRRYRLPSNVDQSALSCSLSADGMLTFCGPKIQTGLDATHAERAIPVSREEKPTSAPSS
# B6: ATP synthase mitochondrial F1 complex assembly factor 2 (Homo sapiens), Q8N5M1 (parent)
# chain: B2 chain
# partner: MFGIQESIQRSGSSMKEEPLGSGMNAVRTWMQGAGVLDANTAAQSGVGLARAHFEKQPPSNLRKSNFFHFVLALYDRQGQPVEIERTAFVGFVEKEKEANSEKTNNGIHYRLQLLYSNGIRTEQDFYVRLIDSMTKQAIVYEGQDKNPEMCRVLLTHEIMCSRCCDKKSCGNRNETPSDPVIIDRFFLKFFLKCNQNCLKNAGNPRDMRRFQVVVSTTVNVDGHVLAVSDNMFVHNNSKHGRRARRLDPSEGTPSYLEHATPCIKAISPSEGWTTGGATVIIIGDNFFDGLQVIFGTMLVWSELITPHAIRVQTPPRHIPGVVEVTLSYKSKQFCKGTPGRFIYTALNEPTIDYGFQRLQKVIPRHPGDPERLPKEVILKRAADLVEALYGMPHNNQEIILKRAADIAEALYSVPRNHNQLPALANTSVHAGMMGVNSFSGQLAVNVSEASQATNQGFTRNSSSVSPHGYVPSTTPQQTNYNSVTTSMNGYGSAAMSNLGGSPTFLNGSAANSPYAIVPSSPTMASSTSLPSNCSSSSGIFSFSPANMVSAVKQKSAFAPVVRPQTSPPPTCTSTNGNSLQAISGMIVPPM
# B7: Adiponectin (Homo sapiens), Q15848 (parent)
# chain: MLLLGAVLLLLALPGHDQETTTQGPGVLLPLPKGACTGWMAGIPGHPGHNGAPGRDGRDGTPGEKGEKGDPGLIGPKGDIGETGVPGAEGPRGFPGIQGRKGEPGEGAYVYRSAFSVGLETYVTIPNMPIRFTKIFYNQQNHYDGSTGKFHCNIPGLYYFAYHITVYMKDVKVSLFKKDKAMLFTYDQYQENNVDQASGSVLLHLEVGDQVWLQVYGEGERNGLYADNDNDSTFTGFLLYHDTN
# partner: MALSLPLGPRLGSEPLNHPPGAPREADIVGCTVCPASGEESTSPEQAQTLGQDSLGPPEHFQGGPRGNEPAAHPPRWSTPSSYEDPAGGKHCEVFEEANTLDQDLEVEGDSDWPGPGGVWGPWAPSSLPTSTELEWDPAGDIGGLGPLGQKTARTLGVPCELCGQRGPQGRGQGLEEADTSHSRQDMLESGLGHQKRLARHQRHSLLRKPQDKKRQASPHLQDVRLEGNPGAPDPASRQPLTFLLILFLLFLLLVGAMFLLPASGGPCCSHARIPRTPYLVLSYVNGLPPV
# B8: U4/U6 small nuclear ribonucleoprotein Prp31 (Homo sapiens), Q8WWY3 (parent)
# chain: B3 chain
# partner: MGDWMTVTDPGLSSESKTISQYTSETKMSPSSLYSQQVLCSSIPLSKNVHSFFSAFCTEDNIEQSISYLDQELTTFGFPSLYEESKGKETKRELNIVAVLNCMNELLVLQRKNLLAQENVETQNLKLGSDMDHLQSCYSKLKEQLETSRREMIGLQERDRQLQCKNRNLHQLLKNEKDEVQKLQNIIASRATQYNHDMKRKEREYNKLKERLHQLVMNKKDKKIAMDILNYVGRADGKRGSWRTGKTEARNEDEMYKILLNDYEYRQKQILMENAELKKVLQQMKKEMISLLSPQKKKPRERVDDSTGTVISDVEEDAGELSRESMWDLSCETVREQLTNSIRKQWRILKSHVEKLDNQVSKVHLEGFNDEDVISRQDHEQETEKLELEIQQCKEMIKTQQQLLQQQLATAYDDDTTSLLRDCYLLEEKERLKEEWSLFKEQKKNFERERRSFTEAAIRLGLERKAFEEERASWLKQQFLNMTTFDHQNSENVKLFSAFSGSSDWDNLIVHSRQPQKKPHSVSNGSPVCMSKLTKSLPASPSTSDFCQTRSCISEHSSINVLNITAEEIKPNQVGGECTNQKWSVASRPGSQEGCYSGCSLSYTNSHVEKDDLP
# B9: Keratin, type II cytoskeletal 6A (Homo sapiens), P02538 (parent)
# chain: MASTSTTIRSHSSSRRGFSANSARLPGVSRSGFSSVSVSRSRGSGGLGGACGGAGFGSRSLYGLGGSKRISIGGGSCAISGGYGSRAGGSYGFGGAGSGFGFGGGAGIGFGLGGGAGLAGGFGGPGFPVCPPGGIQEVTVNQSLLTPLNLQIDPTIQRVRAEEREQIKTLNNKFASFIDKVRFLEQQNKVLETKWTLLQEQGTKTVRQNLEPLFEQYINNLRRQLDSIVGERGRLDSELRGMQDLVEDFKNKYEDEINKRTAAENEFVTLKKDVDAAYMNKVELQAKADTLTDEINFLRALYDAELSQMQTHISDTSVVLSMDNNRNLDLDSIIAEVKAQYEEIAQRSRAEAESWYQTKYEELQVTAGRHGDDLRNTKQEIAEINRMIQRLRSEIDHVKKQCANLQAAIADAEQRGEMALKDAKNKLEGLEDALQKAKQDLARLLKEYQELMNVKLALDVEIATYRKLLEGEECRLNGEGVGQVNISVVQSTVSSGYGGASGVGSGLGLGGGSSYSYGSGLGVGGGFSSSSGRAIGGGLSSVGGGSSTIKYTTTSSSSRKSYKH
# partner: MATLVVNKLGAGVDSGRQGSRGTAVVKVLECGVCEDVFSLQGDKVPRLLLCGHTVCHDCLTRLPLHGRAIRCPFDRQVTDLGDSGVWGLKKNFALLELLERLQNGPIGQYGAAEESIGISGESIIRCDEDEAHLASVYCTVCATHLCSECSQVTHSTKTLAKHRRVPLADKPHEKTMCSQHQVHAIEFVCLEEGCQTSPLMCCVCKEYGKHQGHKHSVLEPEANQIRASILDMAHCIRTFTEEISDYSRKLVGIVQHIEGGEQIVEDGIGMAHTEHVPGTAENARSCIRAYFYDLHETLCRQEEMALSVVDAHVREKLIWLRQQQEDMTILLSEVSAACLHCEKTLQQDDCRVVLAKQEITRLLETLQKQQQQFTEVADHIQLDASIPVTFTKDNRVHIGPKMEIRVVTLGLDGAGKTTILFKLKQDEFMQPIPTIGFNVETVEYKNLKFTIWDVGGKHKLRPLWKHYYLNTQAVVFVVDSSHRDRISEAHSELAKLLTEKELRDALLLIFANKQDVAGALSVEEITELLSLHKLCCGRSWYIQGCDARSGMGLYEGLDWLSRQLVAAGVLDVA
# Variants of: B1
# Settings: with actn2_human ACTN2, P35609
# Chain of actn2_human ACTN2, P35609 (P35609 whole entry): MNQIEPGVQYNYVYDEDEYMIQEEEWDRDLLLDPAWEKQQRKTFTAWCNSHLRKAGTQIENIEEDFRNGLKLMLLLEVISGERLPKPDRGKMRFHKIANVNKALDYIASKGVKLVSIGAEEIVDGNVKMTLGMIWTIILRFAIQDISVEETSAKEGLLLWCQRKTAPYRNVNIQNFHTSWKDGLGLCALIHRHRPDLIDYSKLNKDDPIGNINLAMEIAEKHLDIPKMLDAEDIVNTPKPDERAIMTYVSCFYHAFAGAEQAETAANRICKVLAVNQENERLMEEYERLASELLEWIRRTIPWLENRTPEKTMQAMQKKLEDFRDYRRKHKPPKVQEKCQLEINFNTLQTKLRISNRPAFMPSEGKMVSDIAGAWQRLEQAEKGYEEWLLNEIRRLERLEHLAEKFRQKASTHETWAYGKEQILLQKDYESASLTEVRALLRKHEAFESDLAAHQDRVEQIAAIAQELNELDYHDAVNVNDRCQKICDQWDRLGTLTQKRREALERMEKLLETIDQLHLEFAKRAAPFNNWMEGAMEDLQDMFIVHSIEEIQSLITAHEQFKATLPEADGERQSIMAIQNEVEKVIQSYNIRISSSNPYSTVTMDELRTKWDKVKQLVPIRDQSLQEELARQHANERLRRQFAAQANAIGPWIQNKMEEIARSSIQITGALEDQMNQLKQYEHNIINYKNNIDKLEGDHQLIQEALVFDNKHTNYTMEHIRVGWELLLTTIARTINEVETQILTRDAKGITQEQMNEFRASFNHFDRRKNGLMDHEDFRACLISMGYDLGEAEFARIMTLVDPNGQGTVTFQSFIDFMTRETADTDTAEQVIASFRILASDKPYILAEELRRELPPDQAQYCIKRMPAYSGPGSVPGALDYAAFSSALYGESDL
row,effect of a mutation on the interaction,Variant
1,with no effect,I246M

# Variants of: B1
# Settings: with actn1_human ACTN1, P12814
# Chain of actn1_human ACTN1, P12814 (P12814 whole entry): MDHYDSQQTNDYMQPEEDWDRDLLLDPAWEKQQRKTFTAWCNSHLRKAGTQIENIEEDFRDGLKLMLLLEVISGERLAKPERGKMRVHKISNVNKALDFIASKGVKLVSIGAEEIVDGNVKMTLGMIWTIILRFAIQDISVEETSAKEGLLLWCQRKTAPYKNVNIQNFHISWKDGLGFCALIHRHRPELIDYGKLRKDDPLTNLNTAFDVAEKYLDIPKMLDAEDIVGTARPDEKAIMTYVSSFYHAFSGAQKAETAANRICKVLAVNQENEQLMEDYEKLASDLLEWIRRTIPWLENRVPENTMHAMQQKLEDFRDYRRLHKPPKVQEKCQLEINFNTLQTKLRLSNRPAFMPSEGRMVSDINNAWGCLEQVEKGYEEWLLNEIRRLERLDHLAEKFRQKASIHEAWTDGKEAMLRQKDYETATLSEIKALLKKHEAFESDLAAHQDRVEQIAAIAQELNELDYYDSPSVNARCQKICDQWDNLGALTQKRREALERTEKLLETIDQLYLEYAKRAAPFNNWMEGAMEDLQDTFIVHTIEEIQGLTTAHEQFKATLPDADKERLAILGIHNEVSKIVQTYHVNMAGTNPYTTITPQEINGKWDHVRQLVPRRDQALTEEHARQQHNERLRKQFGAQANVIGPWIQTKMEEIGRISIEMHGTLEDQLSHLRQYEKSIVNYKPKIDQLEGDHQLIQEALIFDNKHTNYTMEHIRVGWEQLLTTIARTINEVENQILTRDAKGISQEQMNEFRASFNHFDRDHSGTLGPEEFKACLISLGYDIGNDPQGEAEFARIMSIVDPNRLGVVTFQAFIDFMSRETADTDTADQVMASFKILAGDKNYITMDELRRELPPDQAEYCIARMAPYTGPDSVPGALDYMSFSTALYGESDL
row,effect of a mutation on the interaction,Variant
1,with no effect,I246M

# Variants of: B1
# Settings: with actn4_human ACTN4, O43707
# Chain of actn4_human ACTN4, O43707 (O43707 whole entry): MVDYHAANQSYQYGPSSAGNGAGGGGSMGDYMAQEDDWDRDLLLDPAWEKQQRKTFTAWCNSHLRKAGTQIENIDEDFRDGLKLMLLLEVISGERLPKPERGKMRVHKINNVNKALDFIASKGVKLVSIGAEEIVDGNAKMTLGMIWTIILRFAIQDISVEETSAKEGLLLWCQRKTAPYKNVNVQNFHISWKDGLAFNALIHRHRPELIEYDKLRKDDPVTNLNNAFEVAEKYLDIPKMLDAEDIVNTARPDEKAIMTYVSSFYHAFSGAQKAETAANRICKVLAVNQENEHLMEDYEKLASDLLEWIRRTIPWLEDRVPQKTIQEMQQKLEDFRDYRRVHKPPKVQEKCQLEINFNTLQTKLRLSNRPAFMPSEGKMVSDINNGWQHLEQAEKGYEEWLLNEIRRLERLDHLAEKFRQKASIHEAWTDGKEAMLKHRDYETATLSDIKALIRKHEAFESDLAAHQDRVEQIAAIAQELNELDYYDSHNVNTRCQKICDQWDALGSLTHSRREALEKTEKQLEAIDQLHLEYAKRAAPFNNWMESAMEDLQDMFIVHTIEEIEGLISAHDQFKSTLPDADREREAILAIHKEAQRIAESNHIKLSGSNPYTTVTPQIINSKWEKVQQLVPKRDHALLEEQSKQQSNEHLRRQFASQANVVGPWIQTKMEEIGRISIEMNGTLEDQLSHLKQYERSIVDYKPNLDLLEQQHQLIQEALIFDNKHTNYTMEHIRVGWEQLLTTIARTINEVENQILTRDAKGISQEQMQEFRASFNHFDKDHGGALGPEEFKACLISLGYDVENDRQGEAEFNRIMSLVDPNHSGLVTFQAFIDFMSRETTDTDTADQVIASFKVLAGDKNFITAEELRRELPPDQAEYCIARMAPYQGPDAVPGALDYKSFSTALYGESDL
row,effect of a mutation on the interaction,Variant
1,with no effect,I246M

# Variants of: B2
# Settings: with prd14_human PRDM14, Q9GZV8
row,effect of a mutation on the interaction,Variant
1,disrupting interaction strength,W94R

# Variants of: B3
# Settings: with RBMY1A1, P0DJD3-2
row,effect of a mutation on the interaction,Variant
1,with no effect,L107V

# Variants of: B4
# Settings: with mkrn3_human MKRN3, Q13064
row,effect of a mutation on the interaction,Variant
1,with no effect,L107V

# Variants of: B5
# Settings: with cryaa_human CRYAA
row,effect of a mutation on the interaction,Variant
1,with no effect,P20S
2,with no effect,R56W
3,with no effect,R120G
4,with no effect,D140N

# Variants of: B6
# Settings: with coe1_human EBF1, Q9UH73
row,effect of a mutation on the interaction,Variant
1,disrupting interaction strength,W94R

# Variants of: B7
# Settings: with SYNE4, Q8N205-2
row,effect of a mutation on the interaction,Variant
1,with no effect,I164T
2,with no effect,Y111H

# Variants of: B8
# Settings: with adip_human SSX2IP
row,effect of a mutation on the interaction,Variant
1,with no effect,L107V

# Variants of: B9
# Settings: with tri23_human TRIM23, P36406
row,Variant,effect of a mutation on the interaction
1,N21S,with no effect
2,F174V,with no effect
3,T552S,with no effect
4,F249L,with no effect
5,V523F,with no effect

# Further lines, results first:
row,effect of a mutation on the interaction,Variant
1,disrupting interaction strength,A463P
2,disrupting interaction strength,I462S
3,disrupting interaction strength,N171K

# Reference: IntAct's records for PubMed 25910212
